Article PMC3865534 (Leukemia, 2013)

Tests used:
[1] = test system: macrophages and osteoblasts in BM and endosteum; settings: previously confirmed; cited from earlier work
Description: Using a similar immunohistochemistry approach, we examined whether the distribution of mature osteoblasts and macrophages within the BM and endosteal environment was disturbed by treatment with POL5551. […] In contrast to G-CSF (Figures 6c and d), treatmen ...

human CXCR4 = test: Receptor binding: competition with CXCR4 antibody clones 12G5/1D9 on Ao.o1_hCXCR4 cells; settings: 1 μM, concurrent incubation with antibody, 4 °C, 30 min, PBS/BSA 0.5%, flow cytometry, n=3
Description: (§1) (a, b) Analysis of the binding properties of POL5551 to CXCR4. […] CXCR4 Ab without agonist/antagonists (untreated) or isotypic control Ab (isotype) were used as positive and negative controls.
CXCR4 Ab without agonist/antagonists (untreated) or isotypic control Ab (isotype) were used as positive and negative controls.

[2] = test system: BM cells (CFU-C) migrating towards CXCL12; test: Transwell migration of BM CFU-C towards CXCL12; assay type: cell-based, mouse; settings: CXCL12 100 ng/ml, 4 h
Protocol: (§2) Input cells and cells from the lower chamber were plated into a colony assay; colony-forming unit culture (CFU-C) migration is expressed as the percent of migrated CFU-C of total CFU-C contained in the inoculum (input).
as §1

[3] = test system: BM cells stimulated with CXCL12; test: F-actin polymerization assay after CXCL12 stimulation; assay type: cell-based, mouse; settings: pretreatment with 1 μM; CXCL12 100 ng/ml, 37 °C, n=3
Description: F-actin was then stained with AlexaFluor568-conjugated phalloidin (Molecular Probes, Eugene, OR, USA) followed by flow cytometric analysis of the relative staining intensity.
as §1

[4] = test system: hematopoietic progenitor cells (CFU-C) in C57BL/6 mice; test: CFU-C mobilization in C57BL/6 mice; assay type: in vivo
Protocol: (§3) POL5551 (Polyphor Ltd, Allschwil, Switzerland) was suspended in saline and either injected as bolus intraperitoneally (i.p.) or intravenously (i.v.) (0.5–100 μg/g body weight) or filled into continuous-release osmotic minipumps (model 2001, Alzet, Palo Alto, CA, USA), which were implanted under general anesthesia into a dorsal subcutaneous pouch. Mono-biotinylated POL5551 (Polyphor Ltd) was suspended in PBS (Life Technologies GmbH, Darmstadt, Germany) and injected i.p. rhG-CSF (Granocyte, Chugai, Frankfurt, Germany) was suspended in dH20 and diluted in saline to a final concentration of 0.5 μg/μl for i.p. injection. Mice received G-CSF injections every 12 h at a dose of 100 μg/kg for a total of nine doses i.p., referred to as ‘standard regimen' throughout the manuscript. Subsequent blood withdrawal and/or administration of POL5551 were performed directly after the last G-CSF injection on day 5.
(§4) For enumeration of CFU-C, aliquots of cells were incubated in duplicate in commercially available growth-factor-supplemented methyl cellulose medium for mouse CFU-C (Stem Cell Technologies, Vancouver, BC, USA or Cell Systems) as described.[23], [32] CFU-C (BFU-E, CFU-GM and CFU-GEMM) were enumerated after 6–8 days.

[5] = test system: hematopoietic progenitor cells (CFU-C) in diabetic C57BL/6 mice; test: CFU-C mobilization in Streptozotocin-induced diabetic mice; assay type: in vivo
Protocol: as §3, §4

[6] = test system: hematopoietic progenitor cells (CFU-C); test: Co-mobilization with G-CSF; assay type: in vivo, mouse; settings: Plerixafor 5 or 10 mg/kg i.p. at end of standard regimen of G-CSF, n=6–8
Protocol: as §3, §4
(§5) Circulating CFU-Cs were enumerated at the indicated time points (mean±s.e.m., n=6–8 mice). […]

[7] = test system: hematopoietic progenitor cells (CFU-C); test: Co-mobilization with Cyclophosphamide (CY); assay type: in vivo, mouse; settings: 5 mg/kg i.p. on day 8 after CY 200 mg/kg i.p.
Protocol: as §3, §4, §5

[8] = mouse, in vivo
[9] = test system: hematopoietic progenitor cells (CFU-C) in C57BL/6 mice; settings: Plerixafor in mice; cited from earlier work
Protocol: In this study, in vitro and in vivo properties of the novel CXCR4 antagonist POL5551 as a mobilizing agent were evaluated.

[10] = test system: hematopoietic progenitor cells (CFU-C) in DBA/2 mice; test: CFU-C mobilization, DBA/2 relative to C57BL/6 mice; assay type: in vivo; settings: G-CSF standard regimen
Protocol: as §3, §4

white blood cells = test: Mobilization of mature leukocyte subsets; assay type: in vivo, C57BL/6 mice; settings: POL5551 4 h i.p., G-CSF standard regimen, Plerixafor 5 mg/kg i.p. 1 h
Protocol: (§6) Cell labeling was performed according to standard protocols using established marker panels for identification of different subsets in mouse hematopoietic tissues. Antibodies used in this study are detailed in Supplementary Methods. Subsequent acquisition and analysis were performed on a BD FACSCanto II cytometer with the FACSDiva software (BD Biosciences). Some data were further analyzed using the FlowJo software (Tree Star, Inc., Ashland, OR, USA). Cell isolation by flow sorting was performed on a BD FACS Aria II (BD Biosciences).
Figure S3: Mobilization of mature cell subsets by POL5551. A: Time-response of POL5551 mediated mobilization of WBCs. C57BL/6 mice received POL5551 (5 mg/kg) i.p. and blood was drawn at the indicated time points for blood count analysis (mean±SEM from 5 mice). B: Relative distribution of leukocytes in mobilized blood specimen. Blood was drawn before (baseline) and 4 hours after POL5551 injection i.p. (mean±SEM, n=5). […] C: Mobilization of T-, B-cells, monocytes and granulocytes. Blood composition was analyzed 4 hours after POL5551 injection (30 mg/kg, i.p. mean±SEM, n=6). […] D: Assessment of mobilized T-cell subsets.

[11] = test system: PB-mobilized CFU-C migrating towards CXCL12; test: Ex vivo migration of mobilized CFU-C towards CXCL12; assay type: cell-based, mouse; settings: G-CSF standard regimen; n=5–8
Protocol: as §2

c-kit+ cells = test: Immunophenotype of c-kit+ cells; assay type: in vivo, C57BL/6 mice; settings: G-CSF standard regimen, after 9th dose, mean +/- SEM, n=5
Protocol: as §6
C57BL/6 mice were mobilized with a bolus injection of POL5551 (5 or 30 mg/kg, i.p., n=5) or standard regimen of G-CSF (n=5). Saline treated animals (n=5) served as steady-state BM and PB donors. […] Percentage of positive cells was evaluated in comparison to isotype control. Mean fluorescence intensity was analyzed among c-kit+ cells.

[12] = test system: long-term repopulating HSCs; test: Limiting dilution competitive repopulating unit (CRU) assay; assay type: in vivo, mouse; settings: POL5551 30 mg/kg i.p.; G-CSF standard regimen; 16 weeks, n=5–10
Protocol: To determine the frequency of long-term repopulating HSCs in POL5551 versus G-CSF-mobilized blood, a limiting dilution CRU assay was performed.[34] Lethally irradiated CD45.2 hosts, 5–10 per group, received i.v. grafts consisting of limiting volumes (2.5, 5.0 and 10 μl) of CD45.1 POL5551 or G-CSF-mobilized blood cells together with 2.5 × 10^5 CD45.2 BM competitor cells. After 16 weeks, multilineage contribution of the CD45.1 graft-derived leukocytes was measured using flow cytometry. Animals with evidence of mobilized blood-derived (that is, CD45.1+) Gr1+, CD11b+, B220+ and CD3+ cells (⩾0.5% for each lineage) were considered positive for donor cell engraftment. CRU (LTRC) frequency was calculated using the LCALC software (Stem Cell Technologies).
Figure 5 Mobilization of CRU by POL5551. CRU frequency in POL5551 (30 mg/kg)-mobilized blood was determined using a CRU assay and compared with the CRU frequency in G-CSF (standard regimen)-mobilized blood. […] CRU engraftment, defined as multilineage engraftment of ⩾0.5% per lineage was quantified 16 weeks after transplantation. […] The mean CRU (LTRC) frequency (b) was calculated using Poisson's statistic (LCALC software, Stem Cell Technologies) (mean±upper/lower frequency).

Molecule: O=P1(N(CCCl)CCCl)NCCCO1 (stereo not drawn) [CY, Cyclophosphamide]
- Mobilization through collapse of HSC niche cellular components [1]: initiates collapse of HSC niche cellular components

Molecule: c1cc(CN2CCCNCCNCCCNCC2)ccc1CN1CCCNCCNCCCNCC1 [Plerixafor]
- Binding to N-terminus / interference with 1D9 binding (human CXCR4): without affecting the binding of 1D9
- Binding to extracellular loops / interference with 12G5 binding (human CXCR4): interfered with 12G5 binding
- Inhibition of CXCL12-induced transwell migration of ssBM CFU-C ([2]; pre-incubation with 1 μM, n=3): completely blocked
- Inhibition of CXCL12-induced F-actin polymerization [3]: did not show an inhibitory effect
- Circulating CFU-C ([4]; Plerixafor 5 mg/kg i.p., n=4): 1300 CFU-C/ml
- Rescue of diabetes-induced hyporesponsiveness to G-CSF ([5]; Plerixafor 10 mg/kg i.p. after the ninth G-CSF dose, 1 h, n=3): could rescue diabetes-induced hyporesponsiveness to G-CSF
- CFU-C mobilization in diabetic vs healthy mice ([5]; Plerixafor 10 mg/kg i.p., 1 h, n=3): markedly decreased (to approximately one-fourth)
- Mobilization in combination with G-CSF [6]: noticeably enhanced
- CFU-C mobilized in combination with CY [7]: > 40 000 CFU-C per ml PB
- Synergism with CY compared with CY plus G-CSF [7]: more pronounced than the combination of CY plus G-CSF
- Toxicity limiting dose [8]: could not be tested at doses >10 mg/kg because of its toxicity
- Dose at which mobilization peaks [9]: 5 mg/kg

Molecule: CXCL12: the natural ligand, the chemokine CXCL12
- CXCL12-induced transwell migration of ssBM CFU-C ([2]; percent of input CFU-C, no inhibitor, n=13): ~6%

B1: G-CSF: rhG-CSF (Granocyte, Chugai, Frankfurt, Germany) (protein, UniProt P09919 31-207, looked up)
Granulocyte …: TPLGPASSLPQSFLLKCLEQVRKIQGDGAALQEKLVSECATYKLCHPEELVLLGHSLGIPWAPLSSCPSQALQLAGCLSQLHSGLFLYQGLLQALEGISPELGPTLDTLQLDVADFATTIWQQMEELGMAPALQPTQGAMPAFASAFQRRAGGVLVASHLQSFLEVSYRVLRHLAQP
- Circulating CFU-C ([4]; G-CSF standard regimen (100 μg/kg every 12 h, nine doses i.p.), n=58): 3800 CFU-C/ml
- Mobilization in DBA/2 relative to C57BL/6 mice [10]: at least six times more CFU-C in DBA/2 than in C57BL/6 mice
- CFU-C mobilization in diabetic vs healthy mice ([5]; G-CSF standard regimen, n=6): markedly decreased (to approximately one-fourth)
- Frequency of neutrophils in mobilized vs non mobilized blood (white blood cells): most prominently in G-CSF-mobilized
- Responsiveness of mobilized CFU-C to CXCL12 [11]: to a similar degree as was also observed for G-CSF-mobilized blood
- CD26, RMFI of c-kit+ cells (c-kit+ cells): 291 +/- 56
- CD26, positive c-kit+ cells (c-kit+ cells): 1,6 +/- 0,3%
- CD29, RMFI of c-kit+ cells (c-kit+ cells): 1587 +/- 267
- CD29, positive c-kit+ cells (c-kit+ cells): 38,0 +/- 6,2%
- CD49e, RMFI of c-kit+ cells (c-kit+ cells): 772 +/- 39
- CD49e, positive c-kit+ cells (c-kit+ cells): 55,2 +/- 3,5%
- CD49f, RMFI of c-kit+ cells (c-kit+ cells): 642 +/- 104
- CD49f, positive c-kit+ cells (c-kit+ cells): 24,2 +/- 4,7%
- CD49d, RMFI of c-kit+ cells (c-kit+ cells): 1179 +/- 58
- CD49d, positive c-kit+ cells (c-kit+ cells): 72,6 +/- 3,6%
- VCAM1, RMFI of c-kit+ cells (c-kit+ cells): 384 +/- 73
- VCAM1, positive c-kit+ cells (c-kit+ cells): 0,7 +/- 0,1%
- CRU frequency in mobilized blood [12]: 34 CRU/ml
- Mobilization through collapse of HSC niche cellular components [1]: initiates collapse of HSC niche cellular components
